B1: vIRF4^153–216 (domain or fragment)
chain: SDTREQSYEEAGAAAPAPPKAPSGLRGRPRKSNRYYNVGDITTEQKAACSVWIPVNEGASTSGM
B2: vIRF4^153–256/Δ202–216/Δ237–256 (domain or fragment)
chain: SDTREQSYEEAGAAAPAPPKAPSGLRGRPRKSNRYYNVGDITTEQKAACGSSGTRQVTQASSFTWRVPG
B3: vIRF4^153–256 (domain or fragment)
chain: SDTREQSYEEAGAAAPAPPKAPSGLRGRPRKSNRYYNVGDITTEQKAACSVWIPVNEGASTSGMGSSGTRQVTQASSFTWRVPGDPPAPSTLTGPSDPHSSGAG
B4: vIRF4^153–256/Δ202–216 (domain or fragment)
chain: SDTREQSYEEAGAAAPAPPKAPSGLRGRPRKSNRYYNVGDITTEQKAACGSSGTRQVTQASSFTWRVPGDPPAPSTLTGPSDPHSSGAG

Biological target: HAUSP^62–205 (HAUSP TRAF domain) (UniProt Q93009 62-205)
Sequence (Q93009 62-205): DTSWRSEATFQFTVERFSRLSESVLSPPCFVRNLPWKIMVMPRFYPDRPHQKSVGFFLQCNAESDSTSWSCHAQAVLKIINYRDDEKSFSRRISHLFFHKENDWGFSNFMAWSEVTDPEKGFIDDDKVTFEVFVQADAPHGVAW
Assay: ITC

Binder | Kd [nM] | Ka [M⁻¹]
B1 | 540 | 
B2 | 4030 | 
B3 | 76 | 
EQGPADDPGEGPSTG [EBNA1^435–449 peptide] | 480 | 
B4 | 3450 | 
DLVQELQEEKPSSSHL (peptide, UniProt Q00987 137-152, looked up) [MDM2^137–152 peptide] | 11100 | 91000

Reference: publication PMC3589550 (Nature structural & molecular biology, 2011)
